In article PMC7518097:

Target: Kv7.2 G279S (human)
Assay: co-IP; lysates of transfected cells incubated with protein A magnetic beads pre-coated with guinea pig anti-KCNQ2-C2 antibodies; CaM detected by western blot (mouse anti-calmodulin); CaM band normalized to WT

- CaM co-immunoprecipitated, normalized to WT (relative to WT): 0.71
Substance: calmodulin (from UniProt P0DP23 1-149) (natural protein)
